B1: Ribonuclease HII, O74035 (parent)
chain: MKIAGIDEAGRGPVIGPMVIAAVVVDENSLPKLEELKVRDSKKLTPKRREKLFNEILGVLDDYVILELPPDVIGSREGTLNEFEVENFAKALNSLKVKPDVIYADAADVDEERFARELGERLNFEAEVVAKHKADDIFPVVSAASILAKVTRDRAVEKLKEEYGEIGSGYPSDPRTRAFLENYYREHGEFPPIVRKGWKTLKKIAEKVESEKKAEERQATLDRYFRKV

Variants of: B1
Details: Thermococcus kodakarensis (strain ATCC BAA-918 / JCM 12380 / KOD1), pH 9, reversible: Yes, structure 1IO2, whole UniProt chain shown; for ddG of mutation (higher = less stable) / denaturant m value / denaturant midpoint (higher = more stable): 50 °C, GdnHCl, CD, Tris-HCl 20 mM; for Tm / change of melting temperature, mutant - wild type (higher = more stable) / unfolding enthalpy (calorimetric) / unfolding enthalpy (van 't Hoff): Thermal, DSC, Gly-NaOH 20 mM

Row | Variant | ddG of mutation (higher = less stable) [kcal/mol] | denaturant m value [kcal/mol/M] | denaturant midpoint (higher = more stable) [M] | Tm [°C] | change of melting temperature, mutant - wild type (higher = more stable) [°C] | unfolding enthalpy (calorimetric) [kcal/mol] | unfolding enthalpy (van 't Hoff) [kcal/mol]
1 | E8A | -2.65 | 4.73 | 2.39 | 93.2 | 8 | 171 | 150
2 | E8Q | -0.6 | 3.73 | 1.97 | 85.9 | 0.6 | 158 | 163
3 | D7N | -1.67 | 4.45 | 2.18 | 88.3 | 3.1 | 137 | 163
4 | D135A | -2.56 | 4.85 | 2.37 | 90.4 | 5.2 | 147 | 153
5 | D105A | -1.58 | 5.66 | 2.17 | 89.4 | 4.2 | 170 | 162
